Our source for the Kd values is article PMC4203850, “Conformational Antibody Binding to a Native, Cell-Free Expressed GPCR in Block Copolymer Membranes” (PLoS ONE, 2014).

The experiment addresses T1, radiolabeled (I-125) SDF-1α (stromal cell-derived factor-1 alpha) (UniProt P48061-2 22-89, 125I radiolabel (position not given)).
T1 construct: SDF-1α (stromal cell-derived factor-1 alpha), the natural ligand of CXCR4; the alpha isoform
In words: radioligand binding; saturation assay: constant CXCR4-ACM concentration, varying 125I-SDF, with and without 0.5 µM unlabeled SDF; 96-well plate, filtration; GraphPad Prism. The conditions noted are these: both partners purified.

T1 sequence (P48061 22-89): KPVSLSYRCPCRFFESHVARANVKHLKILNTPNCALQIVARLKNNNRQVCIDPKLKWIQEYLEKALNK

B1: CXCR4 embedded in polymersome membranes (CXCR4-ACMs) (receptor, UniProt P61073 1-352, looked up)
chain: MEGISIYTSDNYTEEMGSGDYDSMKEPCFREENANFNKIFLPTIYSIIFLTGIVGNGLVILVMGYQKKLRSMTDKYRLHLSVADLLFVITLPFWAVDAVANWYFGNFLCKAVHVIYTVNLYSSVLILAFISLDRYLAIVHATNSQRPRKLLAEKVVYVGVWIPALLLTIPDFIFANVSEADDRYICDRFYPNDLWVVVFQFQHIMVGLILPGIVILSCYCIIISKLSHSKGHQKRKALKTTVILILAFFACWLPYYIGISIDSFILLEIIKQGCEFENTVHKWISITEALAFFHCCLNPILYAFLGAKFKTSAQHALTSVSRGSSLKILSKGKRGGHSSVSTESESSSFHSS
notes: Receptor sits in polybutadiene-b-poly(ethylene oxide) polymersome membrane with 1% DSPE-PEG-biotin; The introduction speaks in general of 'native, full-length membrane proteins' for this approach; also called C4-ACMs; native CXCR4
As a reminder, the Kd is the equilibrium constant for the complex coming apart. High values mean lower affinity, low ones higher affinity. Take B1: binding was characterised by a dissociation constant (Kd) of 8.4 nM.
